{
  "source": "the DeepSol protein solubility set",
  "data": [
    {"experiment": "soluble on expression in E. coli; label from the status in PepcDB or PDB records", "values": [
      {"sequence": "MKTCYYELLGVETHASDLELKKAYRKKALQYHPDKNPDNVEEATQKFAVIRAAYEVLSDPQERAWYDSHKEQILNDTPPSTDDYYDYEVDATVTGVTTDELLLFFNSALYTKIDNSAAGIYQIAGKIFAKLAKDEILSGKRLGKFSEYQDDVFEQDINSIGYLKACDNFINKTDKLLYPLFGYSPTDYEYLKHFYKTWSAFNTLKSFSWKDEYMYSKNYDRRTKREVNRRNEKARQQARNEYNKTVKRFVVFIKKLDKRMKEGAKIAEEQRKLKEQQRKNELNNRRKFGNDNNDEEKFHLQSWQTVKEENWDELEKVYDNFGEFENSKNDKEGEVLIYECFICNKTFKSEKQLKNHINTKLHKKNMEEIRKEMEEENITLGLDNLSDLEKFDSADESVKEKEDIDLQALQAELAEIERKLAESSSEDESEDDNLNIEMDIEVEDVSSDENVHVNTKNKKKRKKKKKAKVDTETEESESFDDTKDKRSNELDDLLASLGDKGLQTDDDEDWSTKAKKKKGKQPKKNSKSTKSTPSLSTLPSSMSPTSAIEVCTTCGESFDSRNKLFNHVKIAGHAAVKNVVKRKKVKTKRI", "soluble on expression in E. coli": "not soluble"},
      {"sequence": "MNILQEPIDFLKKEELKNIDLSQMSKKERYKIWKRIPKCELHCHLDLCFSADFFVSCIRKYNLQPNLSDEEVLDYYLFAKGGKSLGEFVEKAIKVADIFHDYEVIEDLAKHAVFNKYKEGVVLMEFRYSPTFVAFKYNLDIELIHQAIVKGIKEVVELLDHKIHVALMCIGDTGHEAANIKASADFCLKHKADFVGFDHGGHEVDLKEYKEIFDYVRESGVPLSVHAGEDVTLPNLNTLYSAIQVLKVERIGHGIRVAESQELIDMVKEKNILLEVCPISNVLLKNAKSMDTHPIRQLYDAGVKVSVNSDDPGMFLTNINDDYEELYTHLNFTLEDFMKMNEWALEKSFMDSNIKDKIKNLYFKGEFEAYV", "soluble on expression in E. coli": "soluble"},
      {"sequence": "DQVGIWGNSPTAHRGLAVAARHAAPLLRVEDAFLRSLFPGRAGEPPLGLLLDRAGVHFDPTTPSDLEQLLTSAPLDDTTLLNRARDAMARIRENHLSKYCATDPDLPLPEPGYVLVIDQTRGDASVTASGGNDALFREMLVFAQEEHPGARVLIKTHPETAAGFRPGYYGERDISVRVSLYDAPLSPWALLDGAVGVYTLSSQLGFEAILAGHKPRVFGQPFYAGWGLTLDEHPVPRRERRLTRAQLFAAAMILYPTW", "soluble on expression in E. coli": "not soluble"},
      {"sequence": "MSLANIKEIARLANVSVSTVSRVLNHHPYVSEEKRKLVHQVMKELDYTPNRTAIDLIRGKTHTVGVILPYSDHPCFDKIVNGITKAAFQHEYATTLLPTNYNPDIEIKYLELLRTKKIDGLIITSRANHWDSILAYQEYGPVIACEDTGDIDVPCAFNDRKTAYAESFRYLKSRGHENIAFTCVREADRSPSTADKAAAYKAVCGRLEDRHMLSGCNDMNDGELAAEHFYMSGRVPTAIYANSDEVAAGIHLFAKKNNWDVEIIGEGNTSISRVLGFPSLDLNLEQLGIAAFSLFLQDEPADIKIQHKFKKKAEGHHHHHH", "soluble on expression in E. coli": "soluble"},
      {"sequence": "KGLMSKVKVITRGEATRLINKEDAVVVDLRQRDDFRKGHIAGAINLLPSDIKANNVGELEKHKSQPIIVVDGSGMQAQEPASALNKAGFEKVFVLKEGIAGWSGENLPLVRGK", "soluble on expression in E. coli": "not soluble"},
      {"sequence": "MAAAVFHMEILQLNDLSSRLNPLATKNVVLHVCLGVRYFPNSACKSYKDAQALCKDGDGMSLTGPAQSMEKAFFKESVPKVDKCVIFLDGLALNHDEPYNFEFEDETHDGTKNYRFNSEDPNSQTAPNYIVFEYHVSGAHVFDRS", "soluble on expression in E. coli": "not soluble"},
      {"sequence": "MGSDKIHHHHHHMFKSTDNYIASNELTLAVNAAIALEKPLLIKGEPGTGKTQLAEELARSLNCKLYQWHIKSTTKAQQGLYEYDAVSRLRDSQLGDARVHDIGNYIVKGKLWQAFEEDQRSILLIDEIDKADIEFPNDLLQELDKMEFYVYETQQVIKAKQRPIIIITSNNEKELPDAFLRRCFFHYIKFPTKDEMAKIIDVHHPNVKQDLLQQALEVFFDLRDVNGIKKKPSTSELIDWLKLLISDDISQDTLLDKKSDIIPLFGALLKNEQDVSLIEKLAFMSRRNR", "soluble on expression in E. coli": "not soluble"},
      {"sequence": "MGSDKIHHHHHHMGNYLVLQSDFGLSDGAVSAMYGVAYTVSDDIRVENLTHDIPPYDIWVASYRLYQTVKYWPKGTVFVSVVDPGVGSDRRSIACLTYSGHYIITPDNGSLSHIKHYEGIKKVIEIDEVKSRLPHSEESHTFHGRDVYAYNGARLAANKIAFERLGQAINVDSIEALEIREATKNEDSVTGSIDILDIRFGSLWTNIPLAFLKSLEIVHGNNLVVTIYHQDKKVYQNIIKFARSFADVNVGEPLVYVNSLVNIGVAVNQDSFSDLYHIGTGNDWTIHLSKAPSI", "soluble on expression in E. coli": "not soluble"},
      {"sequence": "MEPEFLYDLLQLPKGVEPPAEEELSKGGKKKYLPPTSRKDPKFEELQKVLMEWINATLLPEHIVVRSLEEDMFDGLILHHLFQRLAALKLEAEDIALTATSQKHKLTVVLEAVNRSLQLEEWQAKWSVESIFNKDLLSTLHLLVALAKRFQPDLSLPTNVQVEVITIESTKSGLKSEKLVEQLTEYSTDKDEPPKDVFDELFKLAPEKVNAVKEAIVNFVNQKLDRLGLSVQNLDTQFADGVILLLLIGQLEGFFLHLKEFYLTPNSPAEMLHNVTLALELLKDEGLLSCPVSPEDIVNKDAKSTLRVLYGLFCKHTQKAHRDRTPHGAPN", "soluble on expression in E. coli": "soluble"},
      {"sequence": "MGSDKIHHHHHHMIVLLREINRYCKEKATGKRIYAVPKLWIPGFFKKFDEKSGRCFVDPYELGAEITDWILNQSREWDYSQPLSFLKGEKTPDWIKRSVVYGSLPRTTAAYNHKGSGYYEENDVLGFREAGTFFKMMLLLPFVKSLGADAIYLLPVSRMSDLFKKGDAPSPYSVKNPMELDERYHDPLLEPFKVDEEFKAFVEACHILGIRVILDFIPRTAARDSDLIREHPDWFYWIKVEELADYTPPRAEELPFKVPDEDELEIIYNKENVKRHLKKFTLPPNLIDPQKWEKIKREEGNILELIVKEFGIITPPGFSDLINDPQPTWDDVTFLRLYLDHPEASKRFLDPNQPPYVLYDVIKASKFPGKEPNRELWEYLAGVIPHYQKKYGIDGARLDMGHALPKELLDLIIKNVKEYDPAFVMIAEELDMEKDKASKEAGYDVILGSSWYFAGRVEEIGKLPDIAEELVLPFLASVETPDTPRIATRKYASKMKKLAPFVTYFLPNSIPYVNTGQEIGEKQPMNLGLDTDPNLRKVLSPTDEFFGKLAFFDHYVLHWDSPDRGVLNFIKKLIKVRQQFLDFVLNGKFENLTTKDLVMYSYEKNGQKIVIAANVGKEPKEITGGRVWNGKWSDEEKVVLKPLEFALVVQE", "soluble on expression in E. coli": "not soluble"},
      {"sequence": "MGSDKIHHHHHHMAPLRIRYQTHEFGVLDIHIRTLRDNQEFEDINGEAEKLGISSATWPLFGIVWPSEQVLSHHMLDYPIEGKRILEVGCGIGLASLVLNHRLADITATDYHPETGSFLSQNVALNKGRTIPFVRTGWADETSKLGLFDLIIGSDLLYEQEHADLLSQFIEQHAKPICDVILVDPGRGNHAKFSKRMVTLGYEHSQHKPIHTEFLLAPFGGQILSYSRTKS", "soluble on expression in E. coli": "not soluble"},
      {"sequence": "MAHHHHHHMAATKLGINGFGRIGRLVFRAAFGRKDIEVVAINDPFMDLNHLCYLLKYDSVHGQFPCEVTHADGFLLIGEKKVSVFAEKDPSQIPWGKCQVDVVCESTGVFLTKELASSHLKGGAKKVIMSAPPKDDTPIYVMGINHHQYDTKQLIVSNASCTTNCLAPLAKVINDRFGIVEGLMTTVHASTANQLVVDGPSKGGKDWRAGRCALSNIIPASTGAAKAVGKVLPELNGKLTGVAFRVPIGTVSVVDLVCRLQKPAKYEEVALEIKKAAEGPLKGILGYTEDEVVSQDFVHDNRSSIFDMKAGLALNDNFFKLVSWYDNEWGYSNRVLDLAVHITTS", "soluble on expression in E. coli": "soluble"},
      {"sequence": "MIFINREREMKILEKEWENRPSFVVLYGRRRVGKTRLLREFSKAKKTFFFVFPEAIKEIQMREFKDAMADFLGDEFIRKLKTDNWFDLLKYLAEEVDDCLIVLDEFTYAVKSDRKILSDLQRVWDIILSEKKVMLVLSAPLLGMMWDEVLSHASPLYGRRTRSMHLKPLNYPDALNFFSDWEFGIRAYMLVGGIPSYLKLASRYNTIEDFLREEFLSDYGFFYDEPYVLLSEELRELRTYFSILIAIAEGNRRLERIANFVGLPARSIYPYVETLMRLGFIEKESPILGSRKVSLYRIKDPMLLTWLTLTYPQMAEISSGTAKLDKLYRVYSIRFEELAKEFLTLFRPIEFKTLGRWWYRGEEIDIVAIDEDIANLIEVKWMDLRKKEALRVLQELEEKAKKVNFSGKINLGIVARNVEKKEELRKEGYLVWDLEDILEAAGNSEREKLLEHHHHHH", "soluble on expression in E. coli": "not soluble"}
    ]}
  ]
}
